The values below come from paper PMC8298264, “Function of cofactor Akirin2 in the regulation of gene expression in model human neutrophil-like HL60 cells” (Bioscience Reports, 2021).

B1: RRRRRsp¦Q5VW38¦GP107_HUMAN (protein, UniProt Q5VW38 40-600, looked up)
Protein GPR107: RVHHLALKDDVRHKVHLNTFGFFKDGYMVVNVSSLSLNEPEDKDVTIGFSLDRTKNDGFSSYLDEDVNYCILKKQSVSVTLLILDISRSEVRVKSPPEAGTQLPKIIFSRDEKVLGQSQEPNVNPASAGNQTQKTQDGGKSKRSTVDSKAMGEKSFSVHNNGGAVSFQFFFNISTDDQEGLYSLYFHKCLGKELPSDKFTFSLDIEITEKNPDSYLSAGEIPLPKLYISMAFFFFLSGTIWIHILRKRRNDVFKIHWLMAALPFTKSLSLVFHAIDYHYISSQGFPIEGWAVVYYITHLLKGALLFITIALIGTGWAFIKHILSDKDKKIFMIVIPLQVLANVAYIIIESTEEGTTEYGLWKDSLFLVDLLCCGAILFPVVWSIRHLQEASATDGKGDSMGPLQQRANLRAGSRIESHHFAQADLELLASSCPPASVSQRAGITAAINLAKLKLFRHYYVLIVCYIYFTRIIAFLLKLAVPFQWKWLYQLLDETATLVFFVLTGYKFRPASDNPYLQLSQEEEDLEMESVVTTSGVMESMKKVKKVTNGSVEPQGEWEGAV
B2: sp¦P53618¦COPB_HUMAN (protein, UniProt P53618 2-953, looked up)
Coatomer subunit beta: TAAENVCYTLINVPMDSEPPSEISLKNDLEKGDVKSKTEALKKVIIMILNGEKLPGLLMTIIRFVLPLQDHTIKKLLLVFWEIVPKTTPDGRLLHEMILVCDAYRKDLQHPNEFIRGSTLRFLCKLKEAELLEPLMPAIRACLEHRHSYVRRNAVLAIYTIYRNFEHLIPDAPELIHDFLVNEKDASCKRNAFMMLIHADQDRALDYLSTCIDQVQTFGDILQLVIVELIYKVCHANPSERARFIRCIYNLLQSSSPAVKYEAAGTLVTLSSAPTAIKAAAQCYIDLIIKESDNNVKLIVLDRLIELKEHPAHERVLQDLVMDILRVLSTPDLEVRKKTLQLALDLVSSRNVEELVIVLKKEVIKTNNVSEHEDTDKYRQLLVRTLHSCSVRFPDMAANVIPVLMEFLSDNNEAAAADVLEFVREAIQRFDNLRMLIVEKMLEVFHAIKSVKIYRGALWILGEYCSTKEDIQSVMTEIRRSLGEIPIVESEIKKEAGELKPEEEITVGPVQKLVTEMGTYATQSALSSSRPTKKEEDRPPLRGFLLDGDFFVAASLATTLTKIALRYVALVQEKKKQNSFVAEAMLLMATILHLGKSSLPKKPITDDDVDRISLCLKVLSECSPLMNDIFNKECRQSLSHMLSAKLEEEKLSQKKESEKRNVTVQPDDPISFMQLTAKNEMNCKEDQFQLSLLAAMGNTQRKEAADPLASKLNKVTQLTGFSDPVYAEAYVHVNQYDIVLDVLVVNQTSDTLQNCTLELATLGDLKLVEKPSPLTLAPHDFANIKANVKVASTENGIIFGNIVYDVSGAASDRNCVVLSDIHIDIMDYIQPATCTDAEFRQMWAEFEWENKVTVNTNMVDLNDYLQHILKSTNMKCLTPEKALSGYCGFMAANLYARSIFGEDALANVSIEKPIHQGPDAAVTGHIRIRAKSQGMALSLGDKINLSQKKTSI
B3: sp¦O43719¦HTSF1_HUMAN (protein, UniProt O43719 2-755, looked up)
17S U2 SnRNP complex …: SGTNLDGNDEFDEQLRMQELYGDGKDGDTQTDAGGEPDSLGQQPTDTPYEWDLDKKAWFPKITEDFIATYQANYGFSNDGASSSTANVEDVHARTAEEPPQEKAPEPTDARKKGEKRKAESGWFHVEEDRNTNVYVSGLPPDITVDEFIQLMSKFGIIMRDPQTEEFKVKLYKDNQGNLKGDGLCCYLKRESVELALKLLDEDEIRGYKLHVEVAKFQLKGEYDASKKKKKCKDYKKKLSMQQKQLDWRPERRAGPSRMRHERVVIIKNMFHPMDFEDDPLVLNEIREDLRVECSKFGQIRKLLLFDRHPDGVASVSFRDPEEADYCIQTLDGRWFGGRQITAQAWDGTTDYQVEETSREREERLRGWEAFLNAPEANRGLRRSDSVSASERAGPSRARHFSEHPSTSKMNAQETATGMAFEEPIDEKKFEKTEDGGEFEEGASENNAKESSPEKEAEEGCPEKESEEGCPKRGFEGSCSQKESEEGNPVRGSEEDSPKKESKKKTLKNDCEENGLAKESEDDLNKESEEEVGPTKESEEDDSEKESDEDCSEKQSEDGSEREFEENGLEKDLDEEGSEKELHENVLDKELEENDSENSEFEDDGSEKVLDEEGSEREFDEDSDEKEEEEDTYEKVFDDESDEKEDEEYADEKGLEAADKKAEEGDADEKLFEESDDKEDEDADGKEVEDADEKLFEDDDSNEKLFDEEEDSSEKLFDDSDERGTLGGFGSVEEGPLSTGSSFILSSDDDDDDI
B4: sp¦Q9BUQ8¦DDX23_HUMAN (protein, UniProt Q9BUQ8 1-820, looked up)
Probable ATP-dependent RNA …: MAGELADKKDRDASPSKEERKRSRTPDRERDRDRDRKSSPSKDRKRHRSRDRRRGGSRSRSRSRSKSAERERRHKERERDKERDRNKKDRDRDKDGHRRDKDRKRSSLSPGRGKDFKSRKDRDSKKDEEDEHGDKKPKAQPLSLEELLAKKKAEEEAEAKPKFLSKAEREAEALKRRQQEVEERQRMLEEERKKRKQFQDLGRKMLEDPQERERRERRERMERETNGNEDEEGRQKIREEKDKSKELHAIKERYLGGIKKRRRTRHLNDRKFVFEWDASEDTSIDYNPLYKERHQVQLLGRGFIAGIDLKQQKREQSRFYGDLMEKRRTLEEKEQEEARLRKLRKKEAKQRWDDRHWSQKKLDEMTDRDWRIFREDYSITTKGGKIPNPIRSWKDSSLPPHILEVIDKCGYKEPTPIQRQAIPIGLQNRDIIGVAETGSGKTAAFLIPLLVWITTLPKIDRIEESDQGPYAIILAPTRELAQQIEEETIKFGKPLGIRTVAVIGGISREDQGFRLRMGCEIVIATPGRLIDVLENRYLVLSRCTYVVLDEADRMIDMGFEPDVQKILEHMPVSNQKPDTDEAEDPEKMLANFESGKHKYRQTVMFTATMPPAVERLARSYLRRPAVVYIGSAGKPHERVEQKVFLMSESEKRKKLLAILEQGFDPPIIIFVNQKKGCDVLAKSLEKMGYNACTLHGGKGQEQREFALSNLKAGAKDILVATDVAGRGIDIQDVSMVVNYDMAKNIEDYIHRIGRTGRAGKSGVAITFLTKEDSAVFYELKQAILESPVSSCPPELANHPDAQHKPGTILTKKRREETIFA
B5: sp¦Q99442¦SEC62_HUMAN (protein, UniProt Q99442 1-399, looked up)
Translocation protein SEC62: MAERRRHKKRIQEVGEPSKEEKAVAKYLRFNCPTKSTNMMGHRVDYFIASKAVDCLLDSKWAKAKKGEEALFTTRESVVDYCNRLLKKQFFHRALKVMKMKYDKDIKKEKDKGKAESGKEEDKKSKKENIKDEKTKKEKEKKKDGEKEESKKEETPGTPKKKETKKKFKLEPHDDQVFLDGNEVYVWIYDPVHFKTFVMGLILVIAVIAATLFPLWPAEMRVGVYYLSVGAGCFVASILLLAVARCILFLIIWLITGGRHHFWFLPNLTADVGFIDSFRPLYTHEYKGPKADLKKDEKSETKKQQKSDSEEKSDSEKKEDEEGKVGPGNHGTEGSGGERHSDTDSDRREDDRSQHSSGNGNDFEMITKEELEQQTDGDCEEDEEEENDGETPKSSHEKS
B6: sp¦Q9BX68¦HINT2_HUMAN (protein, UniProt Q9BX68 18-163, looked up)
Adenosine …: VAATGVRGGQVRGAAGVTDGNEVAKAQQATPGGAAPTIFSRILDKSLPADILYEDQQCLVFRDVAPQAPVHFLVIPKKPIPRISQAEEEDQQLLGHLLLVAKQTAKAEGLGDGYRLVINDGKLGAQSVYHLHIHVLGGRQLQWPPG
B7: sp¦Q9UQE7¦SMC3_HUMAN (protein, UniProt Q9UQE7 1-1217, looked up)
Structural maintenance of …: MYIKQVIIQGFRSYRDQTIVDPFSSKHNVIVGRNGSGKSNFFYAIQFVLSDEFSHLRPEQRLALLHEGTGPRVISAFVEIIFDNSDNRLPIDKEEVSLRRVIGAKKDQYFLDKKMVTKNDVMNLLESAGFSRSNPYYIVKQGKINQMATAPDSQRLKLLREVAGTRVYDERKEESISLMKETEGKREKINELLKYIEERLHTLEEEKEELAQYQKWDKMRRALEYTIYNQELNETRAKLDELSAKRETSGEKSRQLRDAQQDARDKMEDIERQVRELKTKISAMKEEKEQLSAERQEQIKQRTKLELKAKDLQDELAGNSEQRKRLLKERQKLLEKIEEKQKELAETEPKFNSVKEKEERGIARLAQATQERTDLYAKQGRGSQFTSKEERDKWIKKELKSLDQAINDKKRQIAAIHKDLEDTEANKEKNLEQYNKLDQDLNEVKARVEELDRKYYEVKNKKDELQSERNYLWREENAEQQALAAKREDLEKKQQLLRAATGKAILNGIDSINKVLDHFRRKGINQHVQNGYHGIVMNNFECEPAFYTCVEVTAGNRLFYHIVDSDEVSTKILMEFNKMNLPGEVTFLPLNKLDVRDTAYPETNDAIPMISKLRYNPRFDKAFKHVFGKTLICRSMEVSTQLARAFTMDCITLEGDQVSHRGALTGGYYDTRKSRLELQKDVRKAEEELGELEAKLNENLRRNIERINNEIDQLMNQMQQIETQQRKFKASRDSILSEMKMLKEKRQQSEKTFMPKQRSLQSLEASLHAMESTRESLKAELGTDLLSQLSLEDQKRVDALNDEIRQLQQENRQLLNERIKLEGIITRVETYLNENLRKRLDQVEQELNELRETEGGTVLTATTSELEAINKRVKDTMARSEDLDNSIDKTEAGIKELQKSMERWKNMEKEHMDAINHDTKELEKMTNRQGMLLKKKEECMKKIRELGSLPQEAFEKYQTLSLKQLFRKLEQCNTELKKYSHVNKKALDQFVNFSEQKEKLIKRQEELDRGYKSIMELMNVLELRKYEAIQLTFKQVSKNFSEVFQKLVPGGKATLVMKKGDVEGSQSQDEGEGSGESERGSGSQSSVPSVDQFTGVGIRVSFTGKQGEMREMQQLSGGQKSLVALALIFAIQKCDPAPFYLFDEIDQALDAQHRKAVSDMIMELAVHAQFITTTFRPELLESADKFYGVKFRNKVSHIDVITAEMAKDFVEDDTTHG
B8: sp¦Q8WZA0¦LZIC_HUMAN (protein, UniProt Q8WZA0 1-190, looked up)
Protein LZIC: MASRGKTETSKLKQNLEEQLDRLMQQLQDLEECREELDTDEYEETKKETLEQLSEFNDSLKKIMSGNMTLVDELSGMQLAIQAAISQAFKTPEVIRLFAKKQPGQLRTRLAEMDRDLMVGKLERDLYTQQKVEILTALRKLGEKLTADDEAFLSANAGAILSQFEKVSTDLGSGDKILALASFEVEKTKK

The assay has as its system human HL60 cells. The assay is described as follows: SWATH-MS proteomics, differential protein representation, akirin2 KO vs WT HL60 cells. It is filed as cell-based. The conditions noted are these: akirin2 KO vs WT HL60 cells; sheet "Under-represented in KO". Put shortly: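 Three biological replicates per genotype; 150 µg protein FASP/trypsin digested; IDA library (3 µg digest); SWATH variable windows, 5 µg/sample, 3.6 s cycle; gradient 5–30% B 120 min then 30–60% B 15 min; 1% global FDR; TAS normalization.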
Turning to B1, the “Fold Change” value is 0.4419 and the “Log (Fold Change)” value is given as -0.3547.
For B2 the same measures were 0.4243 and -0.3723.
For B3 the same measures were 0.1732 and -0.7615.
For B4 the same measures were 0.4207 and -0.376.
For B5, the “Fold Change” value was 0.4401 and the “Log (Fold Change)” value was -0.3564.
For B6 the same measures were 0.4303 and -0.3662.
For B7 the same measures were 0.4375 and -0.359.
For B8 the same measures were 0.433 and -0.3635.
